The text below walks through data of patent CN115894704A (UNIV SICHUAN, dated 2023).

To fix the notation:
T1: EpCAM-camFc(人EpCAM与羊驼Fc重组蛋白) (human, UniProt P16422 24-265)
T1 construct: Recombinant fusion of human EpCAM and alpaca Fc; not shown: alpaca Fc
T1 sequence (looked up): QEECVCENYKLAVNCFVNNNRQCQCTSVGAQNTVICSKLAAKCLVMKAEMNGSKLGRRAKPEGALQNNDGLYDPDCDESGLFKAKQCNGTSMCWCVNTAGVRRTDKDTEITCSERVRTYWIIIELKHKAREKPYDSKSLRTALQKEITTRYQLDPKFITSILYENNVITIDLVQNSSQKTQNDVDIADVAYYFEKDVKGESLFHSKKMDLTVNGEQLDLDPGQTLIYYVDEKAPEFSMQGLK

B1: Anti-EpCAM-VHH SEQ ID NO 3 (phage-displayed) (VHH)
VHH: QVQLVESGGGSVQAGGSLRLSCVVSAYSAYTYKTMCMGWFRQAPGKEREGVAAIYRGGLNTYYADSVKGRFIISRDNAESTMYLQMNSLKPEDTAMYYCAADWLRGDDCNIGANFDYWGQGTQVTVSS
notes: fusion to the phage coat protein is not described
B2: Anti-EpCAM-VHH SEQ ID NO 4 (phage-displayed) (VHH)
VHH: QVQLVESGGGSVQAGGSLRLSCVATGFTISRKCMGWFREAPGKKREVIATINTGSSSPYYADGVKGRFTISQDNAKNTVYLQMNSLKPEDTAMYYCAATKGVVVGTGYCGGPYVERPNSAYWGQGTQVTVSS
notes: as for B1
B3: Anti-EpCAM-VHH SEQ ID NO 5 (phage-displayed) (VHH)
VHH: DVQLVESGGGSVQAGRSLRLSCELSDYTWSTVCMGWFRQAPGKEREGVAVIYTRSGGTTYADSAKGRFTISRDNAKDTLYLQMDSLKPEDTAMYYCAAGPLYDGRCTYRSPAFHYWGQGTQVTVSS
notes: as for B1
B4: Anti-EpCAM-VHH SEQ ID NO 9 (phage-displayed) (VHH)
VHH: HVQLVESGGGSVQSGGSLRLSCAVSGYAYSSLAWFRQAPGKEREGVAALLTAIGGPTRTTYADSVKGRLAISQDHAKNTLYLQMSSLKPEDTAMYYCAAGRPAGTPRWLLLAPRDYNYWGQGTQVTVSS
notes: as for B1
B5: Anti-EpCAM-VHH SEQ ID NO 8 (phage-displayed) (VHH)
VHH: EVQLVESGGDSVQAGGSLRLSCAASGYSPGSYCMGWFRQAPGKERERVAIIESRGTVTYVDSVKGRFTISKDNAKNTLYLQMNSLKPEDTAMYYCAASRPWSGVRCLHDKYDYWGQGTQVTVSS
notes: as for B1
B6: Anti-EpCAM-VHH SEQ ID NO 2 (phage-displayed) (VHH)
VHH: HVQLVESGGGSVQSGGSLRLSCAASGYAVKNCMGWFRQAPGKEREGVAVINRNGITTYADSVKGRFTISQDKDKNTLDLQMNSLKPEDTAMYYCAATPTLLTIPARFLCDVRNPSGFTDWGQGTLVTVSS
notes: as for B1
B7: Anti-EpCAM-VHH SEQ ID NO 7 (phage-displayed) (VHH)
VHH: HVQLVESGGGSVQAGGSLKLSCAASGSIFSGSIFSRCGMRWYRQAPGKERELVSSTSKDGFTSYTDSVKGRFTISQDNANNTLYLQMSSLKTEDTAVYSCAAICAVGGYSLSTYTYWGQGTQVTVSS
notes: as for B1
B8: Anti-EpCAM-VHH SEQ ID NO 1 (phage-displayed) (VHH)
VHH: DVQLVESGGGSVQSGGSLRLSCAASGYTYRRYYMGWFRQAPGEQREGVAVINNDGRTNYADSVKGRFRISRDNAENTLHLEMNSLKPEDTAMYYCAATGNILPPMTAVPPLGRQWYPYWGRGTLVTVSS
notes: as for B1
B9: Anti-EpCAM-VHH SEQ ID NO 6 (phage-displayed) (VHH)
VHH: DVQLVESGGGSAQAGGSLRLSCAASGPTSSLRTMGWFRQASGKERERVAVIWDGRTTDYDDSVQDRFTISQDNAKSTVYLQMNTLKPEDTAMYYCAASPRIVPFASTYFQHWGQGTQVTVSS
notes: as for B1

For the experiment, the target named is T1, EpCAM-camFc(人EpCAM与羊驼Fc重组蛋白). The experiment can be described thus: phage ELISA, EpCAM-camFc coated, anti-M13 HRP. (An ELISA detects its analyte on a solid surface through an enzyme-linked reagent.)
B1: the binding result was “binds”.

B2: the binding result is “binds”.

On to B3, for which the binding result is reported as “binds”.

For B4, the binding result is recorded as “binds”.

As for B5, the binding result is reported as “binds”.

Take B6: the binding result was “binds”.

Regarding B7, the binding result is on record as “binds”.

Turning to B8, the binding result is given as “binds”.

B9: the binding result was “binds”.
